Reference: patent US20090227507A1, “Angiotensin (1-7) Dosage Forms and Uses Thereof” (UNIVERSITY OF SOUTHERN CALIFORNIA, priority 2008, published 2009)

Assay: Hematology profile (CBC with differential, platelet count) in healthy men;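 on Platelet Count, Median Change from Baseline: Thousands of platelets per mm³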;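 on Platelet Count, Median: Thousands of platelets per mm³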
Type: in vivo, human
Settings: for number of various white blood cell types in peripheral blood above baseline levels: human administration
Procedure: Pharmacological Effect: The following evaluations (under efficacy and safety in the protocol) were performed: • Effects on the number of mature blood cells: • 1. CBC (with differential), platelet count, reticulocyte count. • Effects on early hematopoietic progenitor cells and mature lymphocyte subsets in the periphery: • 1. Flow cytometry to evaluate frequency of peripheral blood progenitor cells (eg, CD34^+) and lymphocyte subsets (eg, CD3, CD4, CD8) in peripheral blood. • 2. Collection of blood for later possible culture for progenitor cells (eg, colony forming units-granulocyte/macrophage [CFU-GM]) to evaluate potential effects on CD34^+ hematopoietic progenitor cells in peripheral blood. • 3.
The effect of USB003 on the number of mature blood cells was assessed by the complete blood count with differential, platelet and reticulocyte counts. The effects on early hematopoietic progenitor cells and mature lymphocyte subsets in the periphery were assessed by flow cytometry. In addition, blood was collected and processed to enable culture of progenitors at a later time.
Red blood cell (RBC) count, RBC indices, white blood cell count (WBC) with differential, reticulocyte count, platelet count, hemoglobin (Hb), hematocrit (Hct), plasma hemoglobin, peripheral flow cytometry, including CD34^+, flow cytometry for enumeration of CD3, CD4, and CD8 lymphocytes, and culture for progenitor cells in peripheral blood including colony-forming units-granulocyte/macrophage (CFU-GM).

[1] = 300 μg/kg, N = 8, baseline to Day 8
[2] = 300 μg/kg, N = 8, baseline to Day 20
[3] = 300 μg/kg, Study Termination Visit Day 19
[4] = 300 μg/kg, repeat test 10 days later
[5] = Subject 042, 300 μg/kg, Day 29 U (unscheduled)

Asp-Arg-Val-Tyr-Ile-His-Pro [USB003]
Eosinophils shift L-N, number of subjects [1]: — (“—” = 0)
Eosinophils shift N-H, number of subjects [1]: — (“—” = 0)
Eosinophils shift N-L, number of subjects [1]: — (“—” = 0)
Hematocrit shift H-N, number of subjects [1]: — (“—” = 0)
Hematocrit shift L-N, number of subjects [1]: — (“—” = 0)
Hematocrit shift N-H, number of subjects [1]: — (“—” = 0)
Hematocrit shift N-L, number of subjects [1]: 2
Hemoglobin shift H-N, number of subjects [1]: — (“—” = 0)
Hemoglobin shift L-N, number of subjects [1]: — (“—” = 0)
Hemoglobin shift N-H, number of subjects [1]: — (“—” = 0)
Hemoglobin shift N-L, number of subjects [1]: 2
Lymphocytes shift H-N, number of subjects [1]: — (“—” = 0)
Lymphocytes shift L-N, number of subjects [1]: — (“—” = 0)
Lymphocytes shift N-H, number of subjects [1]: — (“—” = 0)
Lymphocytes shift N-L, number of subjects [1]: — (“—” = 0)
Plasma Hemoglobin shift H-N, number of subjects [1]: — (“—” = 0)
Plasma Hemoglobin shift L-N, number of subjects [1]: — (“—” = 0)
Plasma Hemoglobin shift N-H, number of subjects [1]: — (“—” = 0)
Plasma Hemoglobin shift N-L, number of subjects [1]: — (“—” = 0)
Platelet Count shift H-N, number of subjects [1]: — (“—” = 0)
Platelet Count shift L-N, number of subjects [1]: 1
Platelet Count shift N-H, number of subjects [1]: — (“—” = 0)
Platelet Count shift N-L, number of subjects [1]: — (“—” = 0)
RBC shift H-N, number of subjects [1]: — (“—” = 0)
RBC shift L-N, number of subjects [1]: — (“—” = 0)
RBC shift N-H, number of subjects [1]: — (“—” = 0)
RBC shift N-L, number of subjects [1]: 1
Segmented Neutrophils shift H-N, number of subjects [1]: — (“—” = 0)
Segmented Neutrophils shift L-N, number of subjects [1]: — (“—” = 0)
Segmented Neutrophils shift N-H, number of subjects [1]: — (“—” = 0)
Segmented Neutrophils shift N-L, number of subjects [1]: — (“—” = 0)
Absolute Eosinophils shift H-N, number of subjects [2]: — (“—” = 0)
Absolute Eosinophils shift L-N, number of subjects [2]: — (“—” = 0)
Absolute Eosinophils shift N-H, number of subjects [2]: — (“—” = 0)
Absolute Eosinophils shift N-L, number of subjects [2]: — (“—” = 0)
Absolute Neutrophils shift H-N, number of subjects [2]: — (“—” = 0)
Absolute Neutrophils shift L-N, number of subjects [2]: — (“—” = 0)
Absolute Neutrophils shift N-H, number of subjects [2]: 1
Absolute Neutrophils shift N-L, number of subjects [2]: — (“—” = 0)
Absolute Reticulocytes shift H-N, number of subjects [2]: — (“—” = 0)
Absolute Reticulocytes shift L-N, number of subjects [2]: — (“—” = 0)
Absolute Reticulocytes shift N-H, number of subjects [2]: — (“—” = 0)
Absolute Reticulocytes shift N-L, number of subjects [2]: — (“—” = 0)
Eosinophils shift H-N, number of subjects [2]: 1
Eosinophils shift L-N, number of subjects [2]: — (“—” = 0)
Eosinophils shift N-H, number of subjects [2]: 2
Eosinophils shift N-L, number of subjects [2]: — (“—” = 0)
Hematocrit shift H-N, number of subjects [2]: — (“—” = 0)
Hematocrit shift L-N, number of subjects [2]: — (“—” = 0)
Hematocrit shift N-H, number of subjects [2]: — (“—” = 0)
Hematocrit shift N-L, number of subjects [2]: 4
Hemoglobin shift H-N, number of subjects [2]: — (“—” = 0)
Hemoglobin shift L-N, number of subjects [2]: — (“—” = 0)
Hemoglobin shift N-H, number of subjects [2]: — (“—” = 0)
Hemoglobin shift N-L, number of subjects [2]: 3
Lymphocytes shift H-N, number of subjects [2]: 1
Lymphocytes shift L-N, number of subjects [2]: — (“—” = 0)
Lymphocytes shift N-H, number of subjects [2]: — (“—” = 0)
Lymphocytes shift N-L, number of subjects [2]: — (“—” = 0)
Monocytes shift H-N, number of subjects [2]: — (“—” = 0)
Monocytes shift L-N, number of subjects [2]: — (“—” = 0)
Monocytes shift N-H, number of subjects [2]: — (“—” = 0)
Monocytes shift N-L, number of subjects [2]: — (“—” = 0)
Plasma Hemoglobin shift H-N, number of subjects [2]: — (“—” = 0)
Plasma Hemoglobin shift L-N, number of subjects [2]: — (“—” = 0)
Plasma Hemoglobin shift N-H, number of subjects [2]: 1
Plasma Hemoglobin shift N-L, number of subjects [2]: — (“—” = 0)
Platelet Count shift H-N, number of subjects [2]: — (“—” = 0)
Platelet Count shift L-N, number of subjects [2]: 1
Platelet Count shift N-H, number of subjects [2]: — (“—” = 0)
Platelet Count shift N-L, number of subjects [2]: — (“—” = 0)
RBC shift H-N, number of subjects [2]: — (“—” = 0)
RBC shift L-N, number of subjects [2]: — (“—” = 0)
RBC shift N-H, number of subjects [2]: — (“—” = 0)
RBC shift N-L, number of subjects [2]: 2
RDW shift H-N, number of subjects [2]: — (“—” = 0)
RDW shift L-N, number of subjects [2]: — (“—” = 0)
RDW shift N-H, number of subjects [2]: — (“—” = 0)
RDW shift N-L, number of subjects [2]: — (“—” = 0)
Segmented Neutrophils shift H-N, number of subjects [2]: — (“—” = 0)
Segmented Neutrophils shift L-N, number of subjects [2]: — (“—” = 0)
Segmented Neutrophils shift N-H, number of subjects [2]: 2
Segmented Neutrophils shift N-L, number of subjects [2]: — (“—” = 0)
WBC shift H-N, number of subjects [2]: — (“—” = 0)
WBC shift L-N, number of subjects [2]: — (“—” = 0)
WBC shift N-H, number of subjects [2]: 1
WBC shift N-L, number of subjects [2]: — (“—” = 0)
Absolute Neutrophils, Median (300 μg/kg, Baseline): 2.85 thousands/mm^3
Hematocrit, Median (300 μg/kg, Baseline): 45.25%
Hemoglobin, Median (300 μg/kg, Baseline): 15.60 g/dL
Lymphocytes, Median (300 μg/kg, Baseline): 33.60%
Platelet Count, Median (300 μg/kg, Baseline): 216.0 thousands/mm^3
WBC, Median (300 μg/kg, Baseline): 5.15 thousands/mm^3
Absolute Neutrophils, Median (300 μg/kg, Day 8): 2.95 thousands/mm^3
Absolute Neutrophils, Median Change from Baseline (300 μg/kg, Day 8): −0.10 thousands/mm^3
Hematocrit, Median (300 μg/kg, Day 8): 42.30%
Hematocrit, Median Change from Baseline (300 μg/kg, Day 8): −2.10%
Hemoglobin, Median (300 μg/kg, Day 8): 14.40 g/dL
Hemoglobin, Median Change from Baseline (300 μg/kg, Day 8): -1.15 g/dL
Lymphocytes, Median (300 μg/kg, Day 8): 34.50%
Lymphocytes, Median Change from Baseline (300 μg/kg, Day 8): 1.00%
Platelet Count, Median (300 μg/kg, Day 8): 243.0 thousands/mm^3
Platelet Count, Median Change from Baseline (300 μg/kg, Day 8): 22.5 thousands/mm^3
WBC, Median (300 μg/kg, Day 8): 5.65 thousands/mm^3
WBC, Median Change from Baseline (300 μg/kg, Day 8): −0.30 thousands/mm^3
Absolute Neutrophils, Median (300 μg/kg, Day 20): 3.80 thousands/mm^3
Absolute Neutrophils, Median Change from Baseline (300 μg/kg, Day 20): 0.75 thousands/mm^3
Hematocrit, Median (300 μg/kg, Day 20): 40.45%
Hematocrit, Median Change from Baseline (300 μg/kg, Day 20): −3.45%
Hemoglobin, Median (300 μg/kg, Day 20): 14.0 g/dL
Hemoglobin, Median Change from Baseline (300 μg/kg, Day 20): -1.30 g/dL
Lymphocytes, Median (300 μg/kg, Day 20): 29.75%
Lymphocytes, Median Change from Baseline (300 μg/kg, Day 20): −3.90%
Platelet Count, Median (300 μg/kg, Day 20): 243.5 thousands/mm^3
Platelet Count, Median Change from Baseline (300 μg/kg, Day 20): 14 thousands/mm^3
WBC, Median (300 μg/kg, Day 20): 6.55 thousands/mm^3
WBC, Median Change from Baseline (300 μg/kg, Day 20): 1.30 thousands/mm^3
WBC value, Subject 042 [3]: 13,400 cells/mm^3
segmented neutrophils, Subject 042 [3]: 84.9%
WBC count, Subject 042 [4]: 8,900 cells/mm^3
segmented neutrophils, Subject 042 [4]: 73.5%
total WBC and neutrophil concentrations (200 and 300 μg/kg SC): increases
WBC Significance (Subject 027, 200 μg/kg, Day 11): CS AE
WBC Value (Subject 027, 200 μg/kg, Day 11): 12.7 10^3/mm³
WBC High/Low Normal/Abnormal (Subject 027, 200 μg/kg, Day 14): N
WBC Value (Subject 027, 200 μg/kg, Day 14): 7.3 10^3/mm³
Segmented Neutrophils Significance (Subject 042, 300 μg/kg, Day 19): CS AE
Segmented Neutrophils Value (Subject 042, 300 μg/kg, Day 19): 84.9%
WBC Significance (Subject 042, 300 μg/kg, Day 19): CS AE
WBC Value (Subject 042, 300 μg/kg, Day 19): 13.4 10^3/mm³
Segmented Neutrophils Significance [5]: NCS
Segmented Neutrophils Value [5]: 73.5%
WBC High/Low Normal/Abnormal [5]: N
WBC Value [5]: 8.9 10^3/mm³
peripheral blood concentrations of WBC, neutrophils, CD3, CD34+, CD4 and CD8 (during the administration of USB003): elevations
time for all hematological parameters to return to baseline (following discontinuation of USB003 administration): ≤ 12 days
number of various white blood cell types in peripheral blood above baseline levels (doses of 300 μg/kg or more): increasing the number of various white blood cell types
number of various white blood cell types in peripheral blood above baseline levels (lower doses (200 μg/kg)): did not provide such an increase over baseline
